This is an account of results in patent US7919236 (GIVAUDAN, dated 2011).

What all share (test): cell-based or functional assay
In test [1] the target is human TAS2R16 bitter receptor (human) (UniProt Q9NYV7).
Test [2] addresses T1, mouse T2R5 bitter receptor (mouse, UniProt Q9JKT4 1-300).
T1 sequence (looked up): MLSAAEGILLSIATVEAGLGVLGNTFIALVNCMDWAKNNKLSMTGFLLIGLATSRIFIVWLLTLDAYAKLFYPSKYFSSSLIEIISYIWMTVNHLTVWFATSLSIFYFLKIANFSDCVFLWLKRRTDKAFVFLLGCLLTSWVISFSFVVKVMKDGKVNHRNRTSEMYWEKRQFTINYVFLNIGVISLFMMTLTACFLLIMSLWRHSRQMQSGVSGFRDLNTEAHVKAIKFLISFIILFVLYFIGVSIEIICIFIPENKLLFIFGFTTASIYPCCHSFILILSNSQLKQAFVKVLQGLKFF

Test [3] addresses human TAS1R2/TAS1R3 sweet taste receptor heterodimer (human) (UniProt Q8TE23).
The target of test [4] is human TAS1R2/TAS1R3 sweet taste receptor heterodimer (human, UniProt Q8TE23 20-839; Q7RTX0 21-852).
Sequence of human TAS1R2/TAS1R3 sweet taste receptor heterodimer (Q8TE23 20-839, chain 1 of 2): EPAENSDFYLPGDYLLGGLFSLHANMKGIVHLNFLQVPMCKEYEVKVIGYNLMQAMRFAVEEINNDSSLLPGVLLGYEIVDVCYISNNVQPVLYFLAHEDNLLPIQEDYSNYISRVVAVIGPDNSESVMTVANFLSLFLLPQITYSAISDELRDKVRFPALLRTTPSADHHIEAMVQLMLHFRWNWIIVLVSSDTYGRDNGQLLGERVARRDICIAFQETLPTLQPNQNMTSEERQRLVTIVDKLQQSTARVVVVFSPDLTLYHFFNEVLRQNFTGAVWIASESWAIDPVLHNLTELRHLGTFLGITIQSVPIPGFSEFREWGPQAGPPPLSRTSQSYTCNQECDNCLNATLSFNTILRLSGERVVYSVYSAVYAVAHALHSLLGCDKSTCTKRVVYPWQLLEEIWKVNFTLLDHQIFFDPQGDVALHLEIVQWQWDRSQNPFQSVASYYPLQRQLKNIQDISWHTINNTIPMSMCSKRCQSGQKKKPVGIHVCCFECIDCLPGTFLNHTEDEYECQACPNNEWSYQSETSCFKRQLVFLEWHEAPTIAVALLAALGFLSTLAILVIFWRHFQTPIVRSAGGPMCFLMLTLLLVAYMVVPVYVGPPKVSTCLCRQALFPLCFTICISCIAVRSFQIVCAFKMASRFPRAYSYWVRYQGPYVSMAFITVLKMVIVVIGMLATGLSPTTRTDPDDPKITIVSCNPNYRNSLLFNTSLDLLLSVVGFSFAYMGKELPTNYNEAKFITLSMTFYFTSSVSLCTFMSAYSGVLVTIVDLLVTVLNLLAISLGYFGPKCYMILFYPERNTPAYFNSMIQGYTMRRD
Sequence of human TAS1R2/TAS1R3 sweet taste receptor heterodimer (Q7RTX0 21-852, chain 2 of 2): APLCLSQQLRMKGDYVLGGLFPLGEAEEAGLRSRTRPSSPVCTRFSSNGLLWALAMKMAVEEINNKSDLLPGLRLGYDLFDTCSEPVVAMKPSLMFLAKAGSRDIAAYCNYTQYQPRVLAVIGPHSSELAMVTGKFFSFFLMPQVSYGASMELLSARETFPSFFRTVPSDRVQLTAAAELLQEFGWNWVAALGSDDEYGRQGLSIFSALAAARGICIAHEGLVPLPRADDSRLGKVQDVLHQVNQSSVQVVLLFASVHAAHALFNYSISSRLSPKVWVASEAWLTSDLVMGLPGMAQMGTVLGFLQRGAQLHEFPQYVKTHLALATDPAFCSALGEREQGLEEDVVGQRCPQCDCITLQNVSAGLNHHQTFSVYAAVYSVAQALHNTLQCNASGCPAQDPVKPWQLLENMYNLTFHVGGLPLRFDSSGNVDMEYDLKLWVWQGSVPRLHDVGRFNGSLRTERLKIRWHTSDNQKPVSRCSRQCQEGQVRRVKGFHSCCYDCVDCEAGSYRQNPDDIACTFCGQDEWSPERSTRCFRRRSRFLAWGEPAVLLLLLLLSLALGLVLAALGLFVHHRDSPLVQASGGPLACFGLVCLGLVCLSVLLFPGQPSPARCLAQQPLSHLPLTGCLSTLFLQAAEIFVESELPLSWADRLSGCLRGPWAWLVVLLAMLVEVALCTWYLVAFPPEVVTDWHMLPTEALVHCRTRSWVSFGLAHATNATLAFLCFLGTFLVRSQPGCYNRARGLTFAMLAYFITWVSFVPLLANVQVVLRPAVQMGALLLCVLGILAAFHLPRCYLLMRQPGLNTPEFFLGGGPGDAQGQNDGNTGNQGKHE

Sequence of human TAS2R16 bitter receptor (human) (Q9NYV7 whole entry): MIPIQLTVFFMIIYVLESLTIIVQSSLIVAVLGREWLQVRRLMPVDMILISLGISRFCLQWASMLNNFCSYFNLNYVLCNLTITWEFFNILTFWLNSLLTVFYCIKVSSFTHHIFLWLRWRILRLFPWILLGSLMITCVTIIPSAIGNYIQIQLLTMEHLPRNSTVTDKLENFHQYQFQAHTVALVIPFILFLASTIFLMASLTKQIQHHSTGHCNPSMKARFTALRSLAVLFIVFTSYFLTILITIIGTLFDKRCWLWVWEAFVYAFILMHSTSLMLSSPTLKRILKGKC
Sequence of human TAS1R2/TAS1R3 sweet taste receptor heterodimer (human) (Q8TE23 20-839, chain 1 of 2): as the sequence (Q8TE23 20-839, chain 1 of 2) above
Sequence of human TAS1R2/TAS1R3 sweet taste receptor heterodimer (human) (Q7RTX0 21-852, chain 2 of 2, further chain): as the sequence (Q7RTX0 21-852, chain 2 of 2) above

Consider “wild-type Gα16 (from UniProt P30679 1-374)”, for which the increase in mean Fluo-4 calcium fluorescence over baseline after 5 mM phenyl-β-D-glucopyranoside in test [1] stood at 3490 RFU. In addition, the increase in mean Fluo-4 calcium fluorescence over baseline after 10 µM cycloheximide in test [2] is 2570 RFU.
Take Gα15: the increase in mean Fluo-4 calcium fluorescence over baseline after 2.5 mM sucralose in test [3] was 1300 RFU.

B1: Gα16-gustducin44 chimeric G-protein (other)
chain: MARSLTWRCCPWCLTEDEKAAARVDQEINRILLEQKKQDRGELKLLLLGPGESGKSTFIKQMRIIHGAGYSEEERKGFRPLVYQNIFVSMRAMIEAMERLQIPFSRPESKHHASLVMSQDPYKVTTFEKRYAAAMQWLWRDAGIRACYERRREFHLLDSAVYYLSHLERITEEGYVPTAQDVLRSRMPTTGINEYCFSVQKTNLRIVDVGGQKSERKKWIHCFENVIALIYLASLSEYDQCLEENNQENRMKESLALFGTILELPWFKSTSVILFLNKTDILEEKIPTSHLATYFPSFQGPKQDAEAAKRFILDMYTRMYTGCVDGPEGSNLKKEDKEIYSHMTCATDTQNVKFVFDAVTDIIIKENLKDCGLF
B1: the “fluorescence signal after 10 uM cycloheximide, relative to wild-type Gα16” value in test [2] came out at 5 fold vs wild-type Gα16. In test [4], the “fluorescence signal after 2.5 mM aspartame, acesulfame K or sucralose, relative to wild-type Gα16” value is 2 fold vs wild-type Gα16.
